# Tests used:
# [1] = target: CD3 receptor on T cells (human PBMCs) (human (endogenous in PBMCs)) (UniProt P07766)
# [2] = target: CD3 receptor on T cells (human PBMCs) (human (endogenous in PBMCs)) (UniProt P07766); remark: listed apart in the source
# [3] = target: CD3 receptor on T cells (human PBMCs) (human (endogenous in PBMCs)) (UniProt P07766); remark: listed apart in the source
# UniProt P07766, sequence (P07766 23-207): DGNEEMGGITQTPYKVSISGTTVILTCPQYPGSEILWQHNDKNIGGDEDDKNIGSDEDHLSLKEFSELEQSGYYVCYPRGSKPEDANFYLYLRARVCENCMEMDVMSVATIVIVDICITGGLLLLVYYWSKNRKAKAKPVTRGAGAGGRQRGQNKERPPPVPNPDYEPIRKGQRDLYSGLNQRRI
substance,measurement,setting,value
SadP-scFv UCHT1 lectibody (from UniProt G5DSS1),"specific lysis of Gb3+ Ramos cells by PBMCs (E:T 5:1), bioluminescence-based cytotoxicity assay, 0.2–10 nM lectibody, 7 to 48 hours; highest at 10 nM and 48 hours",[1],65%
same,"fold increase of CD69 on CD3+ T cells (PBMCs co-cultured with Gb3+ Ramos cells), 5 or 10 nM lectibody, 18 and 24 hours; highest at 10 nM and 24 hours",[2],5 to 8 fold
same,"fold increase of CD71 on CD3+ T cells (PBMCs co-cultured with Gb3+ Ramos cells), 5 or 10 nM lectibody, 24 and 48 hours; highest at 10 nM and 48 hours",[3],25 fold
